Experimental data reported in patent US7407939 (CUREGENICS, dated 2008).
Where no end group is shown, it is not given here. Side-chain parts run from the residue outwards. [ ]: non-standard residue; d: D form. The star is where a group is joined. SO2‑IQ = 5-aminoethylsulfoneamide isoquinoline, O=S(=O)(NCCN*)c1cccc2cnccc12; S‑IQ = 5-mercaptoaminopropyl isoquinoline; hLeu = CC(C)CC[C@H](N)C(=O)O; GltNH2 = not defined here; Nle = CCCC[C@H](N)C(=O)O; Orn = NCCC[C@H](N)C(=O)O; bGaba = not defined here; Dab = NCC[C@H](N)C(=O)O; Nva = CCC[C@H](N)C(=O)O; Abu = CC[C@H](N)C(=O)O; Dap = NC[C@H](N)C(=O)O; Ph2 = not defined here; GlyNH2 = aminoglycine; Ava = NCCCCC(=O)O; βAla = NCCC(=O)O

target: protein kinase A, catalytic subunit; assay: cell-based or functional assay

Going from RPRTE(S‑IQ)SF [PTR 6104] to RPR[Orn]E(SO2‑IQ)SF [PTR 6132], the “IC50 PKA” value falls from 100 nM to 12 nM (8.3-fold).

RPRTE([βAla-S‑IQ])SF [PTR 6102] was tested, and the “IC50 PKA” value was 100 nM.

target: protein kinase A, catalytic subunit; assay: cell-based or functional assay; remark: another data set of the same source

RPRTS[Dap][hLeu] [TY 60002-96] and RPRVS[Abu]F [TY 60002-61] cannot be ordered by “Activity PKA” value: > 40 µM for the first, > 40 µM for the second.

RPRTSA[hLeu] [TY 60002-50] and RPRTS[Abu][hLeu] [TY 60002-73] cannot be ordered by “Activity PKA” value: > 40 µM for the first, > 40 µM for the second.

target: protein kinase A, catalytic subunit; assay: cell-based or functional assay; remark: another data set of the same source

Going from RPR[Nva][GlyNH2][Dap][Ph2] (reading uncertain) [60006-11B] to RPR[Nva][GlyNH2]A[hLeu] [60006-5A], the “% Inhibition PKA” value falls from 20% to 10%.

First: RPRTSA[hLeu] [TY 60002-50]
Second: RPRTS[GlyNH2]F [60005-5]
The “% Inhibition PKA” value of the first is lower: 2% for the first, 40% for the second.

Compared with RPRTS[Abu][hLeu] [TY 60002-73], RPR[Nva][GlyNH2][GltNH2][hLeu] (reading uncertain) [60006-16A] is higher in “% Inhibition PKA” value: 8% for the first, 21% for the second.

For RPR[Nva][GlyNH2][Abu][hLeu] [60006-7B], the “% Inhibition PKA” value was 24%.

target: protein kinase A, catalytic subunit; assay: cell-based or functional assay; remark: another data set of the same source

Going from RPR[Nva][GlyNH2]A[hLeu] [60006-5A] to RPRTS[GlyNH2]F [60005-5], the “IC50 µM PKA” value falls from 139 µM to 7.5 µM (19-fold).

In the case of RPRTS[Abu][hLeu] [TY 60002-73], the “IC50 µM PKA” value is reported as 228 µM.

target: protein kinase A, catalytic subunit; assay: cell-based or functional assay; remark: another data set of the same source

First: RPRTE(S‑IQ)SF [PTR 6104]
Second: RPRTD(SO2‑IQ)SF [PTR 6130]
The “PKA IC50” value of the first is 1.9-fold higher: 100 nM for the first, 53 nM for the second.

Going from RPR[Orn]E(SO2‑IQ)SF [PTR 6132] to RPR[Nva]E([βAla-SO2‑IQ])A[hLeu] [PTR 6152], the “PKA IC50” value rises from 12 nM to 5000 nM (420-fold).

First: RPR[Nle]E(SO2‑IQ)SF [PTR 6128]
Second: RPRTE([Ava-SO2‑IQ])SF [PTR 6090]
The “PKA IC50” value of the first is 6-fold lower: 100 nM for the first, 600 nM for the second.

Going from RPRTE([βAla-S‑IQ])SF [PTR 6102] to RPR[Orn]E([bGaba-SO2‑IQ])SF (reading uncertain) [PTR 6088], the “PKA IC50” value rises from 100 nM to 1000 nM (10-fold).

RPR[Nle]E([βAla-SO2‑IQ])S[Nle] [PTR 6096] and RPR[Nle]E([βAla-SO2‑IQ])[Dab]F [PTR 6140] are within 1.5-fold of each other in “PKA IC50” value: 200 nM for the first, 195 nM for the second.

Compared with RPRTE(SO2‑IQ)SF [PTR 6016], RPR[Nle]E([βAla-SO2‑IQ])SF [PTR 6086] is 5-fold higher in “PKA IC50” value: 100 nM for the first, 500 nM for the second.

For RPRTE([βAla-SO2‑IQ])SF [PTR 6082], the “PKA IC50” value was 200 nM.
